# Test results: FireProtDB (doi:10.1002/pro.100)
# B1: Prolactin, P01236 (parent)
# chain: MNIKGSPWKGSLLLLLVSNLLLCQSVAPLPICPGGAARCQVTLRDLFDRAVVLSHYIHNLSSEMFSEFDKRYTHGRGFITKAINSCHTSSLATPEDKEQAQQMNQKDFLSLIVSILRSWNEPLYHLVTEVRGMQEAPEAILSKAVEIEEQTKRLLEGMELIVSQVHPETKENEIYPVWSGLPSLQMADEESRLSAYYNLLHCLRRDSHKIDNYLKLLKCRIIHNNNC
# Variants of: B1
# Details: Homo sapiens, 25 °C, Urea, Fluorescence, Potassium phosphate 25 mM, NaCl 25 mM, reversible: Yes, structure 2Q98, whole UniProt chain shown
Variant,ddG of mutation (higher = less stable) (pH 5.8) [kcal/mol],denaturant m value (pH 5.8) [kcal/mol/M],denaturant midpoint (higher = more stable) (pH 5.8) [M],unfolding free energy (pH 5.8) [kcal/mol],ddG of mutation (higher = less stable) (pH 7.8) [kcal/mol],denaturant m value (pH 7.8) [kcal/mol/M],denaturant midpoint (higher = more stable) (pH 7.8) [M],unfolding free energy (pH 7.8) [kcal/mol]
H208A,-1.39,0.96,5.94,5.69,0.04,1.28,6.36,8.16
H223A,0.03,0.81,5.29,4.27,-0.12,1.42,5.85,8.32
H55A H58A,,,,,-1.42,1.39,6.94,9.62
